The values that follow come from the supplement of paper PMC12042874.

± gives the uncertainty stated by the source.

This data set can be described thus: amyloid nucleation score (Sup35N fusion, yeast selection) (log enrichment); library NNK3; higher = more nucleation; inactive = no reads after selection. The gist of the method: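 Nucleation score is defined as the DiMSum log enrichment of output over input reads, with centring on the mode score of non-aggregating sequences. A minimum of 100 input reads was required for each sequence. Reads came from Illumina sequencing of plasmid inserts from psi-negative yeast expressing Sup35N fused to peptides of 20 random codons, induced with 100 μM copper sulfate for 24 hours and grown 7 days at 30°C on medium lacking adenine and uracil.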
HKPFNFYLGLPLTVV: the amyloid nucleation score result was “inactive”.

HKSIYF: the amyloid nucleation score result was “inactive”. As to HLGFVEYAAKYTMVVCGRAV, the amyloid nucleation score result is “inactive”. As to HLGYPVVLVLLLPSDDSGHL, the amyloid nucleation score entry is “inactive”. Consider HLLRCYMFIVDEVCWSVVAR, for which the amyloid nucleation score entry was “inactive”. For HLMTQMATRRL, the amyloid nucleation score result is “inactive”. Consider HLRFFLRVVGRTFIFCHS, for which the amyloid nucleation score result was “inactive”. Turning to HLSRCYCYNDVSLARNFNDR, the amyloid nucleation score result is “inactive”. In the case of HLVAMMLCQLDTLTFYRYGG, the amyloid nucleation score entry was “inactive”. On to HLYDPVFTKVAPRSSGGYGQ, for which the amyloid nucleation score result is “inactive”.

Regarding HMFSGVG, the amyloid nucleation score entry was “inactive”. The substance HNFLIMWKSVVVLAVAISAK gave an amyloid nucleation score of 0.627 ± 0.18. For the substance HNGARG, the amyloid nucleation score result is “inactive”. HNGDRVDY: the amyloid nucleation score result was “inactive”. On to HNLLEETLTWCNIGRGWDD, for which the amyloid nucleation score result is “inactive”. To HPSSNLMHLM belongs “inactive”; to HQARIYVSYYPVLSFDPFRK, 2.06 ± 0.074; to HQTRIMPGLLGKRAFIRVRL, “inactive”. As to HRDCRKFCSMNTHANMNMLS, the amyloid nucleation score result is “inactive”.

Turning to HRGIVGCLAYMHMNRIVATT, the amyloid nucleation score entry is “inactive”.

As to HRTTWLIWPLS, the amyloid nucleation score result was “inactive”. On to HSCCDEWRDNGEIGNSSNRE, for which the amyloid nucleation score entry is “inactive”.

Take HSIGPVIKRCCVIFSLR: the amyloid nucleation score entry was “inactive”.

Regarding HSLFIFNFGCL, the amyloid nucleation score turned out to be 2.96 ± 0.054. As to HSLTATINTGKLYKSVSKHG, the amyloid nucleation score entry is “inactive”. To HSMQCNT belongs “inactive”; to HSRRYILNVP, 0.935 ± 0.085; to HSSSVTCI, “inactive”. HSVSLNYLGIR: the amyloid nucleation score result is “inactive”. As for HSWWLWNGFVGLAPLVDNFF, the amyloid nucleation score result was “inactive”. HSYTWICVARLPHWFWTQCL registered an amyloid nucleation score of 1.71 ± 0.075. As for HTFDDSTCSYTWVYFHIWCI, the amyloid nucleation score result is “inactive”. HTYLLLRDNLLFTVIHTPRN registered an amyloid nucleation score of 2.02 ± 0.075. As for HVARFMLNRYLLFGEPYMLK, the amyloid nucleation score entry was “inactive”. With HVCWVWMCEVFKAAIPSVTD, the amyloid nucleation score result is “inactive”. Take HVIKNFSADISIDDFFYLGM: the amyloid nucleation score entry was “inactive”. With HVILICLSFYTKFICPIPEV, the amyloid nucleation score result was “inactive”. The figure for HVSSKASLLPMYRY is 0.237 ± 0.75; for HVTPRKN it is “inactive”.

In the case of HWCRQNNSIFMRS, the amyloid nucleation score entry was “inactive”.

Turning to HWGRDFLGFVTAFDGCVSQL, the amyloid nucleation score entry is “inactive”. Regarding HWLFVVKMMKS, the amyloid nucleation score was -0.093 ± 0.41.

In the case of HYLWCVYII, the amyloid nucleation score entry is “inactive”. For the substance HYNVPL, the amyloid nucleation score result was “inactive”. With HYRVLPPAVVRRRVMLL, the amyloid nucleation score result was “inactive”. Turning to HYVPVASDVRGMIYFRSFEW, the amyloid nucleation score entry is “inactive”. As for HYWYE, the amyloid nucleation score entry was “inactive”.

In the case of IACFMI, the amyloid nucleation score result is “inactive”.

As to IAGTIRVFYVFKAYADSPTW, the amyloid nucleation score entry is “inactive”. The substance IAHPSHGS came in with an amyloid nucleation score of 0.432 ± 0.22. Turning to IASEFVRGKHSHYM, the amyloid nucleation score result was “inactive”. IASSSWHVMIWYSPRSCVFS: the amyloid nucleation score entry is “inactive”. For the substance IAVVTSNWVADLSPGNHTCM, the amyloid nucleation score is -0.49 ± 0.96. Regarding ICDLSREYSNHGFVLMDEIR, the amyloid nucleation score entry was “inactive”. Take ICHFTLM: the amyloid nucleation score result is “inactive”.
